Source: US20250333441A1, “POLYPEPTIDE INHIBITORS AND USES THEREOF” (Neuracle Science Co., Ltd., priority 2021, published 2025)

B1: LRRC4B (484-576): LRRC4B fragment, amino acids 484-576 of SEQ ID NO: 2 (SEQ ID NO: 8) (protein)
chain: YTYFTTVTVETLETQPGEEALQPRGTEKEPPGPTTDGVWGGGRPGDAAGPASSSTTAPAPRSSRPTEKAFTVPITDVTENALKDLDDVMKTTK
B2: LRRC4B (482-576): LRRC4B ectodomain fragment, amino acids 482-576 of SEQ ID NO: 2 (SEQ ID NO: 9) (protein)
chain: GGYTYFTTVTVETLETQPGEEALQPRGTEKEPPGPTTDGVWGGGRPGDAAGPASSSTTAPAPRSSRPTEKAFTVPITDVTENALKDLDDVMKTTK
B3: LRRC4B (498-576): LRRC4B fragment, amino acids 498-576 of SEQ ID NO: 2 (SEQ ID NO: 11) (protein)
chain: QPGEEALQPRGTEKEPPGPTTDGVWGGGRPGDAAGPASSSTTAPAPRSSRPTEKAFTVPITDVTENALKDLDDVMKTTK

Legend:
FAM19A5 protein [1] = biological target: T1, FAM19A5 protein (Homo sapiens, UniProt Q7Z5A7); experiment: ELISA binding of recombinant FAM19A5 to coated LRRC4 family ectodomains, fragments and FB peptides; conditions: coated protein or peptide, FAM19A5 up to 10 nM
T1 sequence (Q7Z5A7 44-132): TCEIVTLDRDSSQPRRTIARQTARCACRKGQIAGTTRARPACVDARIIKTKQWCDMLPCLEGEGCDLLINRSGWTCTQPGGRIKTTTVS
Experimental: Next, to confirm the above co-immunoprecipitation results, an ELISA assay was used to measure the binding of the FAM19A5 protein to either the full-length ectodomain of members of LRRC4 protein family or various LRRC4B ectodomain protein fragments. Specifically, an ELISA plate was coated with one of the following LRRC4B ectodomain protein, which was conjugated to human Fc (100 nM/well): (1) full-length ectodomain of LRRC4 protein (amino acid residues 39-527 of SEQ ID NO: 1) (SEQ ID NO: 4); (2) full-length ectodomain of LRRC4B protein (amino acids 36-576 of SEQ ID NO: 2; i.e., construct #7 in Table 6) (SEQ ID NO: 5); (3) full-length ectodomain of LRRC4C protein (amino acids 45-527 of SEQ ID NO: 3) (SEQ ID NO: 6); (4) LRRC4B ectodomain fragment (amino acids 453-576 of SEQ ID NO: 2; i.e., construct #11 in Table 6) (SEQ ID NO: 7); (5) LRRC4B ectodomain fragment (amino acids 484-576 of SEQ ID NO: 2; i.e., construct #12 in Table 6) (SEQ ID NO: 8); (6) LRRC4B ectodomain fragment (amino acids 482-576 of SEQ ID NO: 2) (SEQ ID NO: 9); (7) LRRC4B ectodomain fragment (amino acids 482-497 of SEQ ID NO: 2) (SEQ ID NO: 10); and (8) LRRC4B ectodomain fragment (amino acids 498-576 of SEQ ID NO: 2; i.e., construct #13 in Table 6) (SEQ ID NO: 11). Then, recombinant FAM19A5 proteins (0.005, 0.01, 0.025, 0.05, 0.1, 0.25, 0.5, 1, 2.5, 5, and 10 nM) were added to the relevant wells, and the plates were incubated at 37° C. for 1 hour. Afterwards, the amount of LRRC4B-bound FAM19A5 protein was detected using […] anti-FAM19A5 (1-65) antibody.
As further confirmation, three synthetic polypeptides comprising amino acids 484-497 of SEQ ID NO: 2 (i.e., YTYFTTVTVETLET; SEQ ID NO: 65) were constructed: (1) FB-16 (GYTYFTTVTVETLETQ; SEQ ID NO: 17), (2) FB-20 ([…]; SEQ ID NO: 18), and (3) FB-28 ([…]; SEQ ID NO: 19). The peptides differed in their total length. The ability of these polypeptides to bind to recombinant FAM19A5 protein was assessed using an ELISA assay as described above.

[2] = system: mouse primary cortical neurons; experiment: Neurite growth of primary cortical neurons (beta-tubulin III immunostaining); format: cell-based; conditions: FB peptides; treated for two days, assessed at day 3
Experimental: Next, primary cortical neurons (day 1 postnatal) were cultured in vitro with varying concentrations (0.006 to 60 nM) of the LRRC4B (453-576) protein fragment (i.e., amino acid residues 453-576 of SEQ ID NO: 2; SEQ ID NO: 7), and then at day 3 post-initial culture, the effect on neurite growth was assessed by immunostaining the cells with anti-beta-tubulin III antibody. Cells cultured with DMSO (“Veh”) were used as control.
Mouse hippocampal neurons were treated with LRRC4B peptides at 1 and 2 DIV to determine neurite growth. It was measured by using 3 different parameters, which are total neurites length, number of primary and secondary neurites. After the neurons were stained with beta-tubulin III at 3 DIV, neurites length and branch points were measured using Fiji (Image J, NIH, Bethesda). Individual neurons were selected by hand and these parameters were counted using the Simple neurite tracer plugin. Mouse spinal motor neurons sampled at postnatal day 1 were treated with 10 nM of NS101 and LRRC4B-peptides (dFB-dWY-JM31 and dFB-DY-JM31) at 1 and 2 DIV and immunostained with Tau-5 antibody at 3 DIV. Total neurite length and number of somas in images were measured by Neurphology Image J plugin.

[3] = biological target: binding of FAM19A5 protein to full-length ectodomain of LRRC4 protein (Homo sapiens, UniProt Q7Z5A7); experiment: Competitive inhibition assay, plate coated with full-length LRRC4 ectodomain; conditions: 100 nM/well coated full-length LRRC4 ectodomain; FAM19A5 5 ng/mL
Chain of binding of FAM19A5 protein to full-length ectodomain of LRRC4 protein (Q7Z5A7 44-132): as above
Experimental: (§1) As described in Example 3, there appeared to be much similarity in the binding domains of the different members of the LRRC4 family. […] Then, recombinant FAM19A5 protein (5 ng/mL) was added in combination with one of the following: (i) LRRC4B (484-576) protein fragment, (ii) LRRC4B (453-576, AA) protein fragment, and (iii) synthetic FB-20 peptide. The plates were incubated at 37° C., and then, the amount of FAM19A5 protein bound to the coated LRRC4, LRRC4B, or LRRC4C proteins was measured using anti-FAM19A5 (1-65) antibody.

[4] = biological target: binding of FAM19A5 protein to full-length ectodomain of LRRC4C protein (Homo sapiens, UniProt Q7Z5A7); experiment: Competitive inhibition assay, plate coated with full-length LRRC4C ectodomain; conditions: 100 nM/well coated full-length LRRC4C ectodomain; FAM19A5 5 ng/mL
Chain of binding of FAM19A5 protein to full-length ectodomain of LRRC4C protein (Q7Z5A7 44-132): as above
Experimental: as §1

[5] = biological target: binding of FAM19A5 protein to full-length ectodomain of the LRRC4B protein (amino acids 36-576)-hFc (Homo sapiens, UniProt Q7Z5A7); experiment: Competitive inhibition assay, plate coated with full-length LRRC4B ectodomain; conditions: 100 nM coated ectodomain; FAM19A5 5 ng/mL; increasing concentrations
Chain of binding of FAM19A5 protein to full-length ectodomain of the LRRC4B protein (amino acids 36-576)-hFc (Q7Z5A7 44-132): as above
Experimental: Next, to further assess the role that the binding domain of the LRRC4B protein has on the interaction between FAM19A5 protein and members of the LRRC4 protein family, a competitive inhibition assay was used to determine whether different LRRC4B deletion constructs from Example 2 could inhibit the binding of FAM19A5 to the full-length ectodomain of the LRRC4B protein (i.e., amino acids 36-576 of SEQ ID NO: 2; SEQ ID NO: 5). Briefly, 100 nM of the full-length ectodomain of the LRRC4B protein was used to coat a plate, and then recombinant FAM19A5 protein (5 ng/mL) was added to the plate in combination with the following LRRC4B deletion constructs (increasing concentrations): (1) LRRC4B (453-576) (i.e., construct #11 in Table 6); (2) LRRC4B (453-576) mutant (comprises alanine substitutions at positions 488 and 489 of SEQ ID NO: 2; SEQ ID NO: 16); (3) LRRC4B (484-576) (i.e., construct #12 in Table 6); (4) LRRC4B (482-576); (5) LRRC4B (482-497); and (6) LRRC4B (498-576). The plates were incubated at 37° C., and then, the amount of FAM19A5 bound to the coated LRRC4B ectodomain protein was measured using H1RP-conjugated anti-FAM19A5 (1-65) antibody. […]

FAM19A5 protein [6] = biological target: T1, FAM19A5 protein; experiment: Co-immunoprecipitation of FLAG-tagged LRRC4 family constructs with recombinant FAM19A5 in HEK293 cells; format: binding; conditions: HEK293 cells expressing FLAG-tagged construct, recombinant FAM19A5 protein (1 μM) 30 minutes; anti-FLAG immunoprecipitation
Experimental: To better understand the interaction between FAM19A5 and members of the LRRC4 protein family, HEK293 cells were modified to express a FLAG-tagged member of the LRRC4 protein family, i.e., LRRC4C protein, LRRC4 protein, or LRRC4B protein. Then, the HEK293 cells or primary cortical neurons were treated with recombinant FAM19A5 protein (1 μM) for 30 minutes, and the binding between FAM19A5 protein and the different members of the LRRC4 protein family was assessed using both co-immunoprecipitation and immunofluorescence assays.
For the co-immunoprecipitation assay, cell lysates from the different FAM19A5-treated HEK293 cells were collected and immunoprecipitated with an anti-FLAG antibody, anti-FAM19A5 (1-65) antibody, or a human IgG antibody (control). Immunoprecipitated proteins were immunoblotted with anti-FLAG and anti-FAM19A5 (3-2) antibodies. For the immunofluorescence assay, the HEK293 cells treated with the recombinant FAM19A5 protein were immunostained with anti-FAM19A5 (3-2) (to detect FAM19A5 protein expression) and anti-FLAG antibodies (to detect member of the LRRC4 protein family). The primary cortical neurons treated with the recombinant FAM19A5 protein were immunostained with anti-FAM19A5 (3-2) and anti-LRRC4B antibodies. The nuclei were stained with Hoechst33342 (blue).
To determine the specific motif or domain of the LRRC4B protein that is responsible for the binding to a FAM19A5 protein, various FLAG-tagged LRRC4B deletion constructs were generated (see Table 6 below). HEK293 cells were transfected with the different deletion constructs and then treated with recombinant FAM19A5 protein as described in Example 1. Then, the cell lysates from the different HEK293 cells were immunoprecipitated with the anti-FLAG antibody. The immunoprecipitated proteins were immunoblotted with anti-FLAG and anti-FAM19A5 (3-2) antibodies.
As described in Example 2, all members of the LRRC4 protein family were capable of binding to FAM19A5 protein to varying degrees. Therefore, to compare the bindings domains, the amino acid sequences of the LRRC4B, LRRC4, and LRRC4C proteins were aligned. […] Therefore, to assess whether the corresponding positions of LRRC4 and LRRC4C were important in the binding of these proteins to FAM19A5 protein, cDNAs encoding either (i) LRRC4C protein fragment (amino acids 354-527 of SEQ ID NO: 3; SEQ ID NO: 66) or (ii) LRRC4 protein fragment (amino acids 353-527 of SEQ ID NO: 1; SEQ ID NO: 67) were constructed (see Table 7). HEK293 cells were transfected to express either of the protein fragments and then treated with recombinant FAM19A5 protein as described in Example 1. Then, the cell lysates from the different HEK293 cells were immunoprecipitated with the anti-FLAG antibody. The immunoprecipitated proteins were immunoblotted with anti-FLAG and anti-FAM19A5 (3-2) antibodies.

Row | Molecule | binding to FAM19A5 protein (ELISA) (FAM19A5 protein [1]) | neurite outgrowth [2] | inhibition of FAM19A5 binding to coated LRRC4 protein [3] | inhibition of FAM19A5 binding to coated LRRC4C protein [4] | inhibition of FAM19A5 binding to coated full-length LRRC4B ectodomain protein [5] | binding to FAM19A5 protein (co-immunoprecipitation) (FAM19A5 protein [6])
1 | GYTYFTTVTVETLETQPGEKEPPGPTTD [FB-28] | high affinity | Increased neurite outgrowth |  |  |  | 
2 | GYTYFTTVTVETLETQPGEE [FB-20] | high affinity | Increased neurite outgrowth | able to inhibit FAM19A5 protein from binding | able to inhibit FAM19A5 protein from binding |  | 
3 | GYTYFTTVTVETLETQ [FB-16] | high affinity | Increased neurite outgrowth |  |  |  | 
4 | LRRC4B (482-497): LRRC4B ectodomain fragment, amino acids 482-497 of SEQ ID NO: 2 (SEQ ID NO: 10) (GGYTYFTTVTVETLET; left off: a dimerising Fc or GST) |  |  |  |  | able to inhibit the interaction | 
5 | B1 |  |  | able to inhibit FAM19A5 protein from binding | able to inhibit FAM19A5 protein from binding | able to inhibit the interaction | able to bind to the FAM19A5 protein
6 | B2 |  |  |  |  | able to inhibit the interaction | 
7 | B3 | failed to bind to FAM19A5 |  |  |  | much inferior in their ability to inhibit the interaction | 
